In this assay the target is integral membrane proteins of stripped rat liver cell membranes (rat (endogenous in liver)). Description: co-sedimentation.

As usually defined, the Kd is the constant that tells how readily two partners part at equilibrium. Regarding “Actin, isolated from rabbit skeletal muscle, 125I-labeled (from UniProt P68135 1-377) (natural protein)”, the Kd is 1600 nM.

The values are drawn from PMC2115935.
